The values that follow come from patent publication US8802630B2, “Method of treating brain injury” (Buddhist Tzu Chi General Hospital, priority 2011, dated 2014).

Where no end group is shown, it is not given here.

The conditions of the series: rat, in vivo.

Take “fluorescence-labeled UCN: UCN labeled with the Alexa Fluor 488 dye using Microscale Protein Labeling Kit (DNPSLSIDLTFHLLRTLLELARTQSQRERAEQNRIIFDSV; ends and bridges not checked; also: Alexa Fluor 488 label, site not given here; UniProt P55089 83-122, looked up)”: the “penetration from lateral ventricle into striatal parenchyma” value was “co-localized in cell nuclei of the striatum on the ipsilateral”.
